The test system of one experiment is HPP-CFC. Briefly: High proliferative potential colony (HPP-CFC) assay after pre-incubation. The note with it: 200 ng/ml, 4 hours pre-incubation, day 14. In kind it is cell-based, mouse. As to the method:
An in vitro assay for assessing murine reconstituting stem cells and early precursors is the high proliferative potential colony ([…]) assay; other related assays, e.g., CFU-A, CFU-GM, CFU-E, and CFU-GEMM, detect progressively restricted progenitor populations (M. Moore, Blood 177:2122-2128, 1991). […] BDF1 mice were treated with 5-fluorouracil (200 mg/kg i.p.) before their bone marrow was assayed for HPP-CFC numbers. Cells were washed by centrifugation and incubated at densities of 10^6 to 5×10^6 /ml in medium with either no added agent (Controls), pINPROL (25 ng/ml) or MIP-1α (200 ng/ml) for 4 hours. After incubation, cells were washed and plated in agar (0.3%) with 30% FCS and combined conditioned medium from 5637 and WEHI-3B cell lines (7.5% of each conditioned medium, as recommended by Sharp et al., 1991). Plating concentration was 5×10^4 cells/ml in 60 mm dishes.

The next experiment deals with CFU-MIX. Briefly: CFU-MIX cycling assay in vitro with Ara C. In kind it is cell-based, mouse. The protocol: A similar assay can be performed in vitro, using the cycling status of CFU-MIX instead of CFU-S. The assay is performed as described above for the CFU-S assay except that cytosine arabinoside (Ara C, 30 mg/ml) is used as the cycle-specific toxic agent instead of high dose tritiated thymidine (see B. I. Lord in Haemopoiesis—A Practical Approach, N. G. Testa and G. Molineux (Eds.), IRL Press 1993; Pragnell et al. in Culture of Hematopoietic Cells, R. I. Freshney, I. B. Pragnell and M. G. Freshney (Eds.), Wiley Liss 1994) and a mouse strain with high endogenous cycling rates (Balb/c) is used instead of testosterone-treated BDF1 mice.
To test the activity of these sequences, the CFU-MIX cycling assay was conducted as described in Example 14. As shown in Tables 17-19, these peptides all are active in this assay.

B1: macrophage inflammatory protein 1-alpha (protein, UniProt P10147 24-92, looked up)
C-C motif chemokine 3: SLAADTPTACCFSYTSRQIPQNFIADYFETSSQCSKPGVIFLTKRSRQVCADPSEEWVQKYVSDLELSA
For B1, the “% of Control (HPP-CFU)” value in the experiment with HPP-CFC is recorded as 101%.

B2: myoglobin: structurally related protein, inactive in the assay (protein, UniProt P02144 2-154, looked up)
Myoglobin: GLSDGEWQLVLNVWGKVEADIPGHGQEVLIRLFKGHPETLEKFDKFKHLKSEDEMKASEDLKKHGATVLTALGGILKKKGHHEAEIKPLAQSHATKHKIPVKYLEFISECIIQVLQSKHPGDFGADAQGAMNKALELFRKDMASNYKELGFQG
As for B2, in the experiment with CFU-MIX, the “activity in the CFU-MIX cycling assay” value is “inactive”.

These data come from US6858583B2, “Hemoglobin alpha chain peptide fragments useful for inhibiting stem cell proliferation” (Wellstat Therapeutics Corporation, priority 1993, dated 2005).
